From patent publication US9284543B2, “Neutral active soluble truncated PH20 polypeptides and uses thereof” (Halozyme, Inc., priority 2008, dated 2016)
Residue numbers refer to the chain shown, from its start. Names and notes keep the numbering of the source.

B1: N254A: PH20sHis N-glycosylation site mutant N254A, SEQ ID NO:205 (protein)
chain: MGVLKFKHIFFRSFVKSSGVSQIVFTFLLIPCCLTLNFRAPPVIPNVPFLWAWNAPSEFCLGKFDEPLDMSLFSFIGSPRINATGQGVTIFYVDRLGYYPYIDSITGVTVNGGIPQKISLQDHLDKAKKDITFYMPVDNLGMAVIDWEEWRPTWARNWKPKDVYKNRSIELVQQQNVQLSLTEATEKAKQEFEKAGKDFLVETIKLGKLLRPNHLWGYYLFPDCYNHHYKKPGYNGSCFNVEIKRNDDLSWLWAESTALYPSIYLNTQQSPVAATLYVRNRVREAIRVSKIPDAKSPLPVFAYTRIVFTDQVLKFLSQDELVYTFGETVALGASGIVIWGTLSIMRSMKSCLLLDNYMETILNPYIINVTLAAKMCSQVLCQEQGVCIRKNWNSSDYLHLNPDNFAIQLEKGGKFTVRGKPTLEDLEQFSEKFYCSCYSTLSCKEKADVKDTDAVDVCIADGVCIDAFLKPPMETEEPQIFYNASPSTLSHHHHHH
modifications: His tag; PH20sHis N254A
B2: N82A/N254A: PH20sHis double mutant, SEQ ID NO:207 (protein)
chain: B1 chain with N82A
modifications: His tag; PH20sHis N82A/N254A
B3: N166A/N254A: PH20sHis double mutant, SEQ ID NO:208 (protein)
chain: B1 chain with N166A
modifications: His tag; PH20sHis N166A/N254A
B4: N82A: PH20sHis N-glycosylation site mutant N82A, SEQ ID NO:202 (protein)
chain: B1 chain with N82A, A254N
modifications: His tag; PH20sHis N82A
B5: N82A/N166A/N254A: PH20sHis triple mutant, SEQ ID NO:209 (protein)
chain: B1 chain with N82A, N166A
modifications: His tag; PH20sHis N82A/N166A/N254A
B6: N166A: PH20sHis N-glycosylation site mutant N166A, SEQ ID NO:203 (protein)
chain: B1 chain with N166A, A254N
modifications: His tag; PH20sHis N166A
B7: N82A/N166A: PH20sHis double mutant, SEQ ID NO:206 (protein)
chain: B1 chain with N82A, N166A, A254N
modifications: His tag; PH20sHis N82A/N166A
B8: SPAM1-ILFL: C-terminally truncated human PH20, precursor 501 aa (SEQ ID NO:6), mature 466 aa (SEQ ID NO:58) (protein, listed as Homo sapiens)
chain 1: MGVLKFKHIFFRSFVKSSGVSQIVFTFLLIPCCLTLNFRAPPVIPNVPFLWAWNAPSEFCLGKFDEPLDMSLFSFIGSPRINATGQGVTIFYVDRLGYYPYIDSITGVTVNGGIPQKISLQDHLDKAKKDITFYMPVDNLGMAVIDWEEWRPTWARNWKPKDVYKNRSIELVQQQNVQLSLTEATEKAKQEFEKAGKDFLVETIKLGKLLRPNHLWGYYLFPDCYNHHYKKPGYNGSCFNVEIKRNDDLSWLWNESTALYPSIYLNTQQSPVAATLYVRNRVREAIRVSKIPDAKSPLPVFAYTRIVFTDQVLKFLSQDELVYTFGETVALGASGIVIWGTLSIMRSMKSCLLLDNYMETILNPYIINVTLAAKMCSQVLCQEQGVCIRKNWNSSDYLHLNPDNFAIQLEKGGKFTVRGKPTLEDLEQFSEKFYCSCYSTLSCKEKADVKDTDAVDVCIADGVCIDAFLKPPMETEEPQIFYNASPSTLSATMFIVSILFL
chain 2: LNFRAPPVIPNVPFLWAWNAPSEFCLGKFDEPLDMSLFSFIGSPRINATGQGVTIFYVDRLGYYPYIDSITGVTVNGGIPQKISLQDHLDKAKKDITFYMPVDNLGMAVIDWEEWRPTWARNWKPKDVYKNRSIELVQQQNVQLSLTEATEKAKQEFEKAGKDFLVETIKLGKLLRPNHLWGYYLFPDCYNHHYKKPGYNGSCFNVEIKRNDDLSWLWNESTALYPSIYLNTQQSPVAATLYVRNRVREAIRVSKIPDAKSPLPVFAYTRIVFTDQVLKFLSQDELVYTFGETVALGASGIVIWGTLSIMRSMKSCLLLDNYMETILNPYIINVTLAAKMCSQVLCQEQGVCIRKNWNSSDYLHLNPDNFAIQLEKGGKFTVRGKPTLEDLEQFSEKFYCSCYSTLSCKEKADVKDTDAVDVCIADGVCIDAFLKPPMETEEPQIFYNASPSTLSATMFIVSILFL
modifications: HuPH20 precursor 1-501; mature HuPH20 36-501
B9: SPAM1-FLKP: C-terminally truncated human PH20, precursor 471 aa (SEQ ID NO:29), mature 436 aa (SEQ ID NO:81) (protein, listed as Homo sapiens)
chain 1: MGVLKFKHIFFRSFVKSSGVSQIVFTFLLIPCCLTLNFRAPPVIPNVPFLWAWNAPSEFCLGKFDEPLDMSLFSFIGSPRINATGQGVTIFYVDRLGYYPYIDSITGVTVNGGIPQKISLQDHLDKAKKDITFYMPVDNLGMAVIDWEEWRPTWARNWKPKDVYKNRSIELVQQQNVQLSLTEATEKAKQEFEKAGKDFLVETIKLGKLLRPNHLWGYYLFPDCYNHHYKKPGYNGSCFNVEIKRNDDLSWLWNESTALYPSIYLNTQQSPVAATLYVRNRVREAIRVSKIPDAKSPLPVFAYTRIVFTDQVLKFLSQDELVYTFGETVALGASGIVIWGTLSIMRSMKSCLLLDNYMETILNPYIINVTLAAKMCSQVLCQEQGVCIRKNWNSSDYLHLNPDNFAIQLEKGGKFTVRGKPTLEDLEQFSEKFYCSCYSTLSCKEKADVKDTDAVDVCIADGVCIDAFLKP
chain 2: LNFRAPPVIPNVPFLWAWNAPSEFCLGKFDEPLDMSLFSFIGSPRINATGQGVTIFYVDRLGYYPYIDSITGVTVNGGIPQKISLQDHLDKAKKDITFYMPVDNLGMAVIDWEEWRPTWARNWKPKDVYKNRSIELVQQQNVQLSLTEATEKAKQEFEKAGKDFLVETIKLGKLLRPNHLWGYYLFPDCYNHHYKKPGYNGSCFNVEIKRNDDLSWLWNESTALYPSIYLNTQQSPVAATLYVRNRVREAIRVSKIPDAKSPLPVFAYTRIVFTDQVLKFLSQDELVYTFGETVALGASGIVIWGTLSIMRSMKSCLLLDNYMETILNPYIINVTLAAKMCSQVLCQEQGVCIRKNWNSSDYLHLNPDNFAIQLEKGGKFTVRGKPTLEDLEQFSEKFYCSCYSTLSCKEKADVKDTDAVDVCIADGVCIDAFLKP
modifications: HuPH20 precursor 1-471; Mature HuPH20 36-471

Legend:
[1] = Hyaluronidase activity of N-glycan site specific deglycosylation mutants (biotinylated-HA assay); format: biochemical; conditions: media of transfected CHO-S cells
Method: In short, a 4×BH 96-well plate was coated with biotinylated-HA (1.1 MDa). The 72 hour post transfection supernatant from cells transfected with human PH20 hyaluronidase carboxy-terminus deletion mutants was diluted in buffer at either pH 7.4 or pH 5.5 and added to individual wells of the plate and allowed to incubate at 37° C. for 90 minutes. The reaction was terminated by addition of 4M guanidine HCl. The wells were washed 4× with Phosphate Buffered Saline with Tween20 (PBST) to remove any digested biotinylated-HA followed by addition of streptavidin-HRP for 1 hour at room temperature. The wells were washed 4× with PBST and the plate was developed with TMB. The plate was read at 450 nm using an ELISA plate reader. Hyaluronidase activity (in Units/mL) was determined by interpolating the measured absorbance at 450 nm with a hyaluronidase reference standard curve. Full length mature human PH20 hyaluronidase and untransfected CHO cells were used as positive and negative controls.
PH20sHis (SEQ ID NO:210) was used as a template for mutagenesis of each asparagine residue to alanine using QuikChange® Site-Directed Mutagenesis Kit (Cat No. 200518, Stratagene). […] Six single mutants were generated, one for each of the N-glycosylation sites. Additionally, three double mutants and a triple mutant were generated for asparagines N82, N166 and N254, all of which are occupied by complex type glycans. Finally, a double mutant N368A/N393A was generated, lacking high mannose glycans. The mutants were transfected into CHO—S cells and expression was performed as described in Example 2A. Secretion into the media and hyaluronidase activity were determined as described in Examples 3 and 5, above.

[2] = test system: CHO-S cells; experiment: PI-PLC treatment of expressing cells, Western blot of media and cells; format: cell-based, Chinese Hamster; conditions: cells incubated with PI-PLC for 2 hours
Method: In this example, following transient expression, as described in Example 2 above, the media and cells were harvested separately and analyzed for PH20 expression and solublility by Western blot analysis. Solubility of the C-terminus truncation mutants was determined by examining whether the expressed protein was present in the growth media or in the cells. […] Cells expressing these mutants were treated with phosphoinositol-phospholipase C (PI-PLC), which cleaves the GPI-anchor allowing the release of soluble protein into the media, and the presence of PH20 in the resulting media and cells was determined by Western blot analysis.
Following expression of rHuPH20 in CHO—S cells for 72 hours, as described in Example 2A above, the media and cells were harvested separately. The cells were washed with serum-free media followed by the addition of 2 mL serum-free media per well. PI-PLC (0.5 units/well) was added to each well and the cells were incubated in the PI-PLC for 2 hours. The resultant media and cells were analyzed by Western blot analysis as described above.
Two plates each of rHuPH20 expressing CHO—S cells, one for treatment with PI-PLC and one without treatment with PI-PLC, were prepared for each C-terminus mutant as described in Example 2B above. Following expression for 48 hours, for cells untreated with PI-PLC, the media and cells were harvested separately. The harvested media was spun down, concentrated to a volume of 10 mL, and buffer exchanged into PBS using an Amicon 30 kD MWCO concentrator. The cells were rinsed with cold PBS and scraped and resuspended in 1.2 mL PBS with protease inhibitor Set III (Cat No. 539134, Calbiochem). The resuspended cells were briefly sonicated to prepare whole-cell extract. For PI-PLC treatment of cells, following expression for 48 hours, the untreated media was harvested, as described above. The cells were rinsed once with fresh CD DG44 medium with Glutamax-1, and the media was replaced with 12 mL fresh detergent free CD DG44 medium supplemented with Glutamax-1 with 3.0 units PI-PLC per dish, and the cells were incubated for 2 hours at 37° C. with 5% CO2. After 2 hours, the PI-PLC media and cells were harvested separately, as described above. The resultant untreated media and cells, and PI-PLC treated media and cells, were analyzed by Western blot analysis as described above.

[3] = Microtiter hyaluronidase activity assay with biotinylated-hyaluronic acid; format: biochemical; conditions: for pH 5.5 Activity / pH 7.4 Activity: 72 hour post transfection supernatant
[4] = test system: CHO-S cells; experiment: Western blot analysis of PH20 expression in media and cells after transient expression; format: cell-based, Chinese Hamster; conditions: media versus cells
Procedure, shortened: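 CHO-S cells were transiently transfected with mutant PH20-HZ24 plasmids using GeneJuice and expressed for 48-72 h at 37 °C, 5% CO2. Media and cells were harvested separately, with PI-PLC treatment used to release GPI-anchored protein. Non-reduced samples were blotted with rabbit anti-PH20 (0.5 μg/mL), and a band near 66 kDa was scored as PH20.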

Molecule	Activity pH 5.5 [1]	Activity pH 7.4 [1]	other results
B1	YES	YES	
B2	YES	YES	
B3	YES	YES	
B4	YES	YES	
B5	YES	YES	
B6	YES	YES	
B7	YES	YES	
B8			Expressed in Media Following Addition of PI-PLC [2]: YES; pH 5.5 Activity ([3]; Table 6): 0.0405 Units/ml; pH 7.4 Activity ([3]; Table 6): 0.0405 Units/ml; pH 5.5 Activity ([3]; Table 6A): 0.122 Units/ml; pH 7.4 Activity ([3]; Table 6A): 0.446 Units/ml; Hyaluronidase activity (in words) ([3]; pH 7.4 and pH 5.5): little detectable activity
B9			Expressed in Media [4]: YES; pH 5.5 Activity ([3]; Table 6): 2.79 Units/ml; pH 7.4 Activity ([3]; Table 6): 3.321 Units/ml
